pKd: −log10 of the molar value.
Assays:
[1] = target: S蛋白, SARS-CoV-2 BA.1 (SARS-CoV-2 BA.1); test: cell-based or functional assay
[2] = target: S蛋白, SARS-CoV-2 BA.2.75 (SARS-CoV-2 BA.2.75); test: cell-based or functional assay
[3] = target: S蛋白, SARS-CoV-2 BA.4/5 (SARS-CoV-2 BA.4/5); test: cell-based or functional assay
[4] = target: S蛋白, SARS-CoV-2 BF.7 (SARS-CoV-2 BF.7); test: cell-based or functional assay
[5] = target: S蛋白, SARS-CoV-2 BQ.1 (SARS-CoV-2 BQ.1); test: cell-based or functional assay
[6] = target: S蛋白, SARS-CoV-2 BQ.1.1 (SARS-CoV-2 BQ.1.1); test: cell-based or functional assay
[7] = target: S蛋白, SARS-CoV-2 Delta (SARS-CoV-2 Delta); test: cell-based or functional assay
[8] = target: S蛋白, SARS-CoV-2 XBB (SARS-CoV-2 XBB); test: cell-based or functional assay
[9] = target: S蛋白, SARS-CoV-2 XBB.1.5 (SARS-CoV-2 XBB.1.5); test: cell-based or functional assay
[10] = target: SARS-CoV-2(BA.5) Spike RBD (SARS-CoV-2 BA.5); test: SPR (Biacore 8K), antibody captured on Protein A chip, RBD as analyte
[11] = target: SARS-CoV-2(BF.7) Spike RBD (SARS-CoV-2 BF.7); test: as above

Q: Which results are given for LY-CoV1404 (antibody)?
A: 假病毒中和活性 IC50 [1]: 1.44 ng/mL; 假病毒中和活性 IC50 [2]: 25.1 ng/mL; 假病毒中和活性 IC50 [3]: 1.22 ng/mL; 假病毒中和活性 IC50 [4]: 2.14 ng/mL; 假病毒中和活性 IC50 [5]: > 2000 ng/mL; 假病毒中和活性 IC50 [6]: > 2000 ng/mL; 假病毒中和活性 IC50 [7]: 3.05 ng/mL; 假病毒中和活性 IC50 [8]: > 2000 ng/mL; 假病毒中和活性 IC50 [9]: > 2000 ng/mL; pKd [10]: 9.74; pKd [11]: 9.79
